From US20140087995A1 (published 2014)
Numbered stars: 1 amine (or outer) side, 2 acyl side, 3 side chain; on linkers, the order of the positions; unused ones are H or OH. Bridge positions count the residues as written; N and C are the ends. Side chains are listed from the residue outwards. Ends that are not written are not given here. * marks the point of attachment. C20 diacid = O=C(O)CCCCCCCCCCCCCCCCCCC(=O)*; γGlu = O=C(O)[C@H](CCC(=O)[*:2])N[*:1]; AEEA = NCCOCCOCC(=O)O

T1: human amylin receptor (amylin 3(a) receptor: human calcitonin receptor plus RAMP-3) (human, UniProt P30988 25-474; O60896 24-148, limits assumed)
T1 sequence (looked up) 1: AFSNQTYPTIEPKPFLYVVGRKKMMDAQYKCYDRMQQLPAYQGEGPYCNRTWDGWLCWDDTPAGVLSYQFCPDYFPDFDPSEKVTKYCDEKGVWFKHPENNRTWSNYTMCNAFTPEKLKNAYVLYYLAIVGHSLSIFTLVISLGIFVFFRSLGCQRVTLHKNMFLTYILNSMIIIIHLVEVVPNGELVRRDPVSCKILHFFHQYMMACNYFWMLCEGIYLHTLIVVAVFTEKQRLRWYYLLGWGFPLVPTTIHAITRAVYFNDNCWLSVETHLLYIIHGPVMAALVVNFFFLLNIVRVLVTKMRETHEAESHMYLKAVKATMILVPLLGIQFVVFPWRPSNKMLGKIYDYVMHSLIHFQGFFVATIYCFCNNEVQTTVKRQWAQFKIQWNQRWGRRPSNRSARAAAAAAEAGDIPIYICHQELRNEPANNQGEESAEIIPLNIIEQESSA
T1 sequence (looked up) 2: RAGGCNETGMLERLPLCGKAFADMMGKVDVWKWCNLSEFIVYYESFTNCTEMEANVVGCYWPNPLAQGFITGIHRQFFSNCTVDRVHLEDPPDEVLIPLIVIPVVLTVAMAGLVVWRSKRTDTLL

T2: human calcitonin receptor (human, UniProt P30988 25-474)
T2 sequence (looked up): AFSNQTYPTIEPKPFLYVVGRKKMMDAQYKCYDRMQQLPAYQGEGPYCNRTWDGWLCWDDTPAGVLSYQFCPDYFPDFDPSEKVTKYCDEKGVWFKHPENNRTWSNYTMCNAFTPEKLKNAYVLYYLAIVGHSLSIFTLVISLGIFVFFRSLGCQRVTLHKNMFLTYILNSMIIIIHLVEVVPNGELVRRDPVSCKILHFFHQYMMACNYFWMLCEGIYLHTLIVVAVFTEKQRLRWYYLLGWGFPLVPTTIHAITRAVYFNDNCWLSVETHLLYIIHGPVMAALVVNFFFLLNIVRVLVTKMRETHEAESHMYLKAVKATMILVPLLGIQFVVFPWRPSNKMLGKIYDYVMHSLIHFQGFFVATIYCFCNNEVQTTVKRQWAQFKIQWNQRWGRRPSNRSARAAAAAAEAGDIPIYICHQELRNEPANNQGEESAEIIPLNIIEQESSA


How the values were obtained:
[1] = target: T1, human amylin receptor (amylin 3(a) …); assay: cell-based or functional assay
[2] = target: T2, human calcitonin receptor; assay: cell-based or functional assay

Row | Ratio hCT/hAmylin funct. [1] [ratio] | hAmylin-R funct. EC50 [1] [nM] | hCTR funct. EC50 [2] [nM] | Binder
1 | 16.4 | 0.182 | 3 | K([γGlu-γGlu-C20 diacid])CNTATCATQRLADFLRHSSPNFGAIPSSTNVGSDTY-NH2 (disulfide 2-7; N-terminus assumed; SMILES CC[C@H](C)[C@H](NC(=O)[C@H](C)NC(=O)CNC(=O)[C@H](Cc1ccccc1)NC(=O)[C@H](CC(N)=O)NC(=O)[C@@H]1CCCN1C(=O)[C@H](CO)NC(=O)[C@H](CO)NC(=O)[C@H](Cc1c[nH]cn1)NC(=O)[C@H](CCCNC(=N)N)NC(=O)[C@H](CC(C)C)NC(=O)[C@H](Cc1ccccc1)NC(=O)[C@H](CC(=O)O)NC(=O)[C@H](C)NC(=O)[C@H](CC(C)C)NC(=O)[C@H](CCCNC(=N)N)NC(=O)[C@H](CCC(N)=O)NC(=O)[C@@H](NC(=O)[C@H](C)NC(=O)[C@@H]1CSSC[C@H](NC(=O)[C@@H](N)CCCCNC(=O)CC[C@H](NC(=O)CC[C@H](NC(=O)CCCCCCCCCCCCCCCCCCC(=O)O)C(=O)O)C(=O)O)C(=O)N[C@@H](CC(N)=O)C(=O)N[C@@H]([C@@H](C)O)C(=O)N[C@@H](C)C(=O)N[C@@H]([C@@H](C)O)C(=O)N1)[C@@H](C)O)C(=O)N1CCC[C@H]1C(=O)N[C@@H](CO)C(=O)N[C@@H](CO)C(=O)N[C@H](C(=O)N[C@@H](CC(N)=O)C(=O)N[C@H](C(=O)NCC(=O)N[C@@H](CO)C(=O)N[C@@H](CC(=O)O)C(=O)N[C@H](C(=O)N[C@@H](Cc1ccc(O)cc1)C(N)=O)[C@@H](C)O)C(C)C)[C@@H](C)O, Synthetic acylated analogue of human amylin; also called compound 2)
2 | 6.7 | 0.205 | 1.38 | K([γGlu-γGlu-C20 diacid])CNTATCATQRLADFLRHSSNPFGAPLSSTNVGSDTY-NH2 (disulfide 2-7; N-terminus assumed; SMILES CC(C)C[C@H](NC(=O)[C@H](CCCNC(=N)N)NC(=O)[C@H](CCC(N)=O)NC(=O)[C@@H](NC(=O)[C@H](C)NC(=O)[C@@H]1CSSC[C@H](NC(=O)[C@@H](N)CCCCNC(=O)CC[C@H](NC(=O)CC[C@H](NC(=O)CCCCCCCCCCCCCCCCCCC(=O)O)C(=O)O)C(=O)O)C(=O)N[C@@H](CC(N)=O)C(=O)N[C@@H]([C@@H](C)O)C(=O)N[C@@H](C)C(=O)N[C@@H]([C@@H](C)O)C(=O)N1)[C@@H](C)O)C(=O)N[C@@H](C)C(=O)N[C@@H](CC(=O)O)C(=O)N[C@@H](Cc1ccccc1)C(=O)N[C@@H](CC(C)C)C(=O)N[C@@H](CCCNC(=N)N)C(=O)N[C@@H](Cc1c[nH]cn1)C(=O)N[C@@H](CO)C(=O)N[C@@H](CO)C(=O)N[C@@H](CC(N)=O)C(=O)N1CCC[C@H]1C(=O)N[C@@H](Cc1ccccc1)C(=O)NCC(=O)N[C@@H](C)C(=O)N1CCC[C@H]1C(=O)N[C@@H](CC(C)C)C(=O)N[C@@H](CO)C(=O)N[C@@H](CO)C(=O)N[C@H](C(=O)N[C@@H](CC(N)=O)C(=O)N[C@H](C(=O)NCC(=O)N[C@@H](CO)C(=O)N[C@@H](CC(=O)O)C(=O)N[C@H](C(=O)N[C@@H](Cc1ccc(O)cc1)C(N)=O)[C@@H](C)O)C(C)C)[C@@H](C)O, Synthetic acylated analogue of human amylin; also called compound 3)

Continued, binder first:

Row | Binder | Ratio hCT/hAmylin funct. [1] [ratio] | hAmylin-R funct. EC50 [1] [nM] | hCTR funct. EC50 [2] [nM]
3 | K([AEEA-γGlu-C20 diacid])CNTATCATQRLANFLRHSSPNFGAIPSSTNVGSNTY-NH2 (disulfide 2-7; N-terminus assumed; SMILES CC[C@H](C)[C@H](NC(=O)[C@H](C)NC(=O)CNC(=O)[C@H](Cc1ccccc1)NC(=O)[C@H](CC(N)=O)NC(=O)[C@@H]1CCCN1C(=O)[C@H](CO)NC(=O)[C@H](CO)NC(=O)[C@H](Cc1c[nH]cn1)NC(=O)[C@H](CCCNC(=N)N)NC(=O)[C@H](CC(C)C)NC(=O)[C@H](Cc1ccccc1)NC(=O)[C@H](CC(N)=O)NC(=O)[C@H](C)NC(=O)[C@H](CC(C)C)NC(=O)[C@H](CCCNC(=N)N)NC(=O)[C@H](CCC(N)=O)NC(=O)[C@@H](NC(=O)[C@H](C)NC(=O)[C@@H]1CSSC[C@H](NC(=O)[C@@H](N)CCCCNC(=O)COCCOCCNC(=O)CC[C@H](NC(=O)CCCCCCCCCCCCCCCCCCC(=O)O)C(=O)O)C(=O)N[C@@H](CC(N)=O)C(=O)N[C@@H]([C@@H](C)O)C(=O)N[C@@H](C)C(=O)N[C@@H]([C@@H](C)O)C(=O)N1)[C@@H](C)O)C(=O)N1CCC[C@H]1C(=O)N[C@@H](CO)C(=O)N[C@@H](CO)C(=O)N[C@H](C(=O)N[C@@H](CC(N)=O)C(=O)N[C@H](C(=O)NCC(=O)N[C@@H](CO)C(=O)N[C@@H](CC(N)=O)C(=O)N[C@H](C(=O)N[C@@H](Cc1ccc(O)cc1)C(N)=O)[C@@H](C)O)C(C)C)[C@@H](C)O, Synthetic acylated analogue of human amylin; also called compound 41) | 16.7 | 0.26 | 4.35
4 | {C20 diacid-γGlu}-KCNTATCATQRLAEFLRHSSPNFGPILPPTNVGSNTY-NH2 (disulfide 2-7; SMILES CC[C@H](C)[C@H](NC(=O)[C@@H]1CCCN1C(=O)CNC(=O)[C@H](Cc1ccccc1)NC(=O)[C@H](CC(N)=O)NC(=O)[C@@H]1CCCN1C(=O)[C@H](CO)NC(=O)[C@H](CO)NC(=O)[C@H](Cc1c[nH]cn1)NC(=O)[C@H](CCCNC(=N)N)NC(=O)[C@H](CC(C)C)NC(=O)[C@H](Cc1ccccc1)NC(=O)[C@H](CCC(=O)O)NC(=O)[C@H](C)NC(=O)[C@H](CC(C)C)NC(=O)[C@H](CCCNC(=N)N)NC(=O)[C@H](CCC(N)=O)NC(=O)[C@@H](NC(=O)[C@H](C)NC(=O)[C@@H]1CSSC[C@H](NC(=O)[C@H](CCCCN)NC(=O)CC[C@H](NC(=O)CCCCCCCCCCCCCCCCCCC(=O)O)C(=O)O)C(=O)N[C@@H](CC(N)=O)C(=O)N[C@@H]([C@@H](C)O)C(=O)N[C@@H](C)C(=O)N[C@@H]([C@@H](C)O)C(=O)N1)[C@@H](C)O)C(=O)N[C@@H](CC(C)C)C(=O)N1CCC[C@H]1C(=O)N1CCC[C@H]1C(=O)N[C@H](C(=O)N[C@@H](CC(N)=O)C(=O)N[C@H](C(=O)NCC(=O)N[C@@H](CO)C(=O)N[C@@H](CC(N)=O)C(=O)N[C@H](C(=O)N[C@@H](Cc1ccc(O)cc1)C(N)=O)[C@@H](C)O)C(C)C)[C@@H](C)O, Synthetic acylated analogue of human amylin; also called compound 6) | 5.7 | 0.128 | 0.729
5 | K([AEEA-C20 diacid])CNTATCATQRLANFLRHSSPNFGAIPSSTNVGSNTY-NH2 (disulfide 2-7; N-terminus assumed; SMILES CC[C@H](C)[C@H](NC(=O)[C@H](C)NC(=O)CNC(=O)[C@H](Cc1ccccc1)NC(=O)[C@H](CC(N)=O)NC(=O)[C@@H]1CCCN1C(=O)[C@H](CO)NC(=O)[C@H](CO)NC(=O)[C@H](Cc1c[nH]cn1)NC(=O)[C@H](CCCNC(=N)N)NC(=O)[C@H](CC(C)C)NC(=O)[C@H](Cc1ccccc1)NC(=O)[C@H](CC(N)=O)NC(=O)[C@H](C)NC(=O)[C@H](CC(C)C)NC(=O)[C@H](CCCNC(=N)N)NC(=O)[C@H](CCC(N)=O)NC(=O)[C@@H](NC(=O)[C@H](C)NC(=O)[C@@H]1CSSC[C@H](NC(=O)[C@@H](N)CCCCNC(=O)COCCOCCNC(=O)CCCCCCCCCCCCCCCCCCC(=O)O)C(=O)N[C@@H](CC(N)=O)C(=O)N[C@@H]([C@@H](C)O)C(=O)N[C@@H](C)C(=O)N[C@@H]([C@@H](C)O)C(=O)N1)[C@@H](C)O)C(=O)N1CCC[C@H]1C(=O)N[C@@H](CO)C(=O)N[C@@H](CO)C(=O)N[C@H](C(=O)N[C@@H](CC(N)=O)C(=O)N[C@H](C(=O)NCC(=O)N[C@@H](CO)C(=O)N[C@@H](CC(N)=O)C(=O)N[C@H](C(=O)N[C@@H](Cc1ccc(O)cc1)C(N)=O)[C@@H](C)O)C(C)C)[C@@H](C)O, Synthetic acylated analogue of human amylin; also called compound 43) [N^ε1-[2-[2-[2-(19-carboxynonadecanoylamino)ethoxy]ethoxy]acetyl]-[Arg17,Pro21,Pro27]-h-amylin] | 6.5 | 0.141 | 0.92
6 | {C20 diacid-γGlu}-KCNTATCATQRLAEFLRHSSPNFGAIPSSTNVGKNTY-NH2 (disulfide 2-7; SMILES CC[C@H](C)[C@H](NC(=O)[C@H](C)NC(=O)CNC(=O)[C@H](Cc1ccccc1)NC(=O)[C@H](CC(N)=O)NC(=O)[C@@H]1CCCN1C(=O)[C@H](CO)NC(=O)[C@H](CO)NC(=O)[C@H](Cc1c[nH]cn1)NC(=O)[C@H](CCCNC(=N)N)NC(=O)[C@H](CC(C)C)NC(=O)[C@H](Cc1ccccc1)NC(=O)[C@H](CCC(=O)O)NC(=O)[C@H](C)NC(=O)[C@H](CC(C)C)NC(=O)[C@H](CCCNC(=N)N)NC(=O)[C@H](CCC(N)=O)NC(=O)[C@@H](NC(=O)[C@H](C)NC(=O)[C@@H]1CSSC[C@H](NC(=O)[C@H](CCCCN)NC(=O)CC[C@H](NC(=O)CCCCCCCCCCCCCCCCCCC(=O)O)C(=O)O)C(=O)N[C@@H](CC(N)=O)C(=O)N[C@@H]([C@@H](C)O)C(=O)N[C@@H](C)C(=O)N[C@@H]([C@@H](C)O)C(=O)N1)[C@@H](C)O)C(=O)N1CCC[C@H]1C(=O)N[C@@H](CO)C(=O)N[C@@H](CO)C(=O)N[C@H](C(=O)N[C@@H](CC(N)=O)C(=O)N[C@H](C(=O)NCC(=O)N[C@@H](CCCCN)C(=O)N[C@@H](CC(N)=O)C(=O)N[C@H](C(=O)N[C@@H](Cc1ccc(O)cc1)C(N)=O)[C@@H](C)O)C(C)C)[C@@H](C)O, Synthetic acylated analogue of human amylin; also called compound 36) | 6.8 | 0.189 | 1.28
